According to patent publication US7419813B2, “Fructosyl peptide oxidase” (Kikkoman Corporation, priority 2001, dated 2008):

B1: Coniochaeta sp. NISL 9330: fructosyl peptide oxidase produced by Coniochaeta sp. NISL 9330 (FERM BP-7798) with less action on ε-fructosyl lysine; amino acid sequence SEQ ID NO: 1 (protein, listed as Coniochaeta sp.)
chain: MTSNRADTRVIVVGGGGTIGSSTALHLVRSGYAPANITVLDTFEIPSAQSAGHDLNKIMGIRLRNKVDLQMSLEARQMWKEDELFQPFFHNTGRMDCEHTPEGIEDLKKQYQALHDAGAGLEKTHAWLDNEDEILSKMPLLQRDQIQGWKAIWSQDGGWLAAAKAINAIGQFLKERGVKFGFGGAGSFKQPLFDDEGTTCIGVETADGTKYYADKVVLAAGAWSPTLVDLEDQCCSKAWVYAHIQLTPEEAAEYKGVPVVYNGEFGFFFEPNEFGVIKVCDEFPGFSRFKEHQPYGAPSPKHISVPRSHAKHPTDTYPDASEVSIKKAIATFLPRFQDKELFNRALCWCTDTADAALLMCEHPKWKNFILATGDSGHSFKILPNVGKHVVELIEGRLPEEMAYQWRWRPGGDALKSRRAAPPKDLADMPGWKHDPKL
B2: Eupenicillium terrenum ATCC 18547: fructosyl peptide oxidase produced by Eupenicillium terrenum ATCC 18547 with less action on ε-fructosyl lysine; amino acid sequence SEQ ID NO: 3 (protein, listed as Eupenicillium terrenum)
chain: MAHSRASTKVVVVGGGGTIGSSTALHLIRSGYTPSNITVLDVYKTPSLQSAGHDLNKIMGIRLRNGPDLQLSLESLDMWQNDELFKPFFHQVGMIDCSSSKEGIENLRRKYQTLLDAGIGLEKTNVWLESEDEILAKAPNFTREQVKGWKGLFCTDGGWLAAAKAINAIGIFLQDKGVKFGFGGAGTFQQPLFAADGKTCIGLETTDGTKYFADKVVLAAGAWSPTLVDLEDQCVSKAWVFAHIQLTPKEADAYKNVPVVYDGEYGFFFEPNEYGVIKVCDEFPGFSRFKLHQPYGAASPKMISVPRSHAKHPTDTYPDASEVTIRKAIARFLPEFKDKELFNRTMCWCTDTADANLLICEHPKWKNFILATGDSGHSFKLLPNIGKHVVELLEGSLSQEMAGAWRWRPGGDALRSRRGAPAKDLAEMPGWKHDAHL

Columns and labels:
[1] = Optimum pH of the enzyme reaction; assay type: biochemical; settings: purified oxidase, 30° C.; for optimum pH (range): relative activities of 70% or higher
Description: For example, 200 mM acetic acid buffer (pH 3.0-6.0), 200 mM MES-NaOH (pH 6.0-7.0), 200 mM Tris buffer (pH 6.8-9.0), 200 mM potassium phosphate buffer (pH 6.5-8.0) and 200 mM glycine buffer (pH 8.0-12.0) are used as buffers to perform enzyme reactions at the indicated pH at 30° C., thereby determining optimal pH. For example, the oxidases of the invention may have an optimal pH at 5.0-9.0, preferably pH 6.0-8.0. For example, 200 mM acetic acid buffer (pH 3.0-6.0), 200 mM MES-NaOH (pH 6.0-7.0), 200 mM Tris buffer (pH 6.8-9.0), 200 mM potassium phosphate buffer (pH 6.5-8.0) and 200 mM glycine buffer (pH 8.0-12.0) are used as buffers to perform enzyme reactions at the indicated pH at 30° C., thereby determining optimal pH. For example, the oxidases of the invention that have less action on ε-fructosyl lysine may have an optical pH at 5.0-9.0, preferably at 6.0-8.0. Enzyme reaction was monitored in 200 mM acetic acid buffer (pH 3.0-6.0), 200 mM MES-NaOH (pH 6.0-7.0), 200 mM Tris buffer (pH 6.8-9.0), 200 mM potassium phosphate buffer (pH 6.5-8.0) or 200 mM glycine buffer (pH 8.0-12.0) at the indicated pH values at 30° C. […] Enzyme reaction was monitored in 200 mM acetic acid buffer (pH 4.0-6.0), 200 mM MES-NaOH (pH 6.0-7.0), 200 mM Tris buffer (pH 7.0-8.5), 200 mM potassium phosphate buffer (pH 6.0-8.0) or 200 mM glycine buffer (pH 8.0-9.0) at the indicated pH values at 30° C.

[2] = assay type: physicochemical; settings: for pH of maximum remaining activity: 10 min; for stable pH range: purified oxidase, 30° C. for 10 minutes, remaining activities of 70% (Eupenicillium 60%) or higher
Description: For example, 200 mM acetic acid buffer (pH 3.0-6.0), 200 mM MES-NaOH (pH 6.0-7.0), 200 mM Tris buffer (pH 6.8-9.0), 200 mM potassium phosphate buffer (pH 6.5-8.0) and 200 mM glycine buffer (pH 8.0-12.0) are used as buffers to perform enzyme reactions at the indicated pH at 30° C. for 10 minutes, thereby determining the remaining activities of the oxidases of the invention. For example, the oxidases of the invention may have a stable pH at 5.0-10.0, preferably at 6.0-9.0. For example, 200 mM acetic acid buffer (pH 3.0-6.0), 200 mM MES-NaOH (pH 6.0-7.0), 200 mM Tris buffer (pH 6.8-9.0), 200 mM potassium phosphate buffer (pH 6.5-8.0) and 200 mM glycine buffer (pH 8.0-12.0) are used as buffers to perform enzyme reactions at the indicated pH at 30° C. for 10 minutes, thereby determining the remaining activities of the oxidases of the invention. For example, the oxidases of the invention that have less action on ε-fructosyl lysine may have a stable pH range at 5.0-10.0, preferably at 6.0-9.0. The inventive oxidase was treated with 200 mM acetic acid buffer (pH 3.0-6.0), 200 mM MES-NaOH (pH 6.0-7.0), 200 mM Tris buffer (pH 6.8-9.0), 200 mM potassium phosphate buffer (pH 6.5-8.0) or 200 mM glycine buffer (pH 8.0-12.0) at the indicated pH values at 30° C. for 10 minutes, and its remaining activity was determined. […] The inventive oxidase was treated with 200 mM acetic acid buffer (pH 3.0-6.0), 200 mM MES-NaOH (pH 6.0-7.0), 200 mM Tris buffer (pH 7.0-8.5), 200 mM potassium phosphate buffer (pH 6.0-8.0) or 200 mM glycine buffer (pH 8.0-12.0) at the indicated pH values at 30° C. for 10 minutes, and the remaining activity thereof was monitored.

[3] = Enzyme activity assay, ε-fructosyl lysine substrate; assay type: biochemical; settings: for Substrate specificity (% relative activity) εFL: crude enzyme sample; for relative activity for ε-fructosyl lysine: purified oxidase, compared to 100% activity for fructosyl valyl histidine
Text: Enzyme activities of the oxidase of the invention and the oxidase of the invention that have less action on ε-fructosyl lysine (hereinafter, the term “the oxidases of the invention” may comprise both the oxidase of the invention and the oxidase of the invention that have less action on ε-fructosyl lysine) may principally be determined by determining the amount of α-ketoaldehyde, peptide, hydrogen peroxide or the like which are produced through enzyme reaction or by determining the amount of oxygen consumed by the enzyme reaction. Hereinafter, a method for determining the amount of hydrogen peroxide will be described as one example. Unless otherwise noted, fructosyl valyl histidine is used as a substrate for determining the activities of the oxidases of the invention. Titer of the enzyme is defined such that an amount of enzyme for producing 1 μmol hydrogen peroxide per minute is 1U as determined using a fructosyl valyl histidine substrate. 624 mg of fructosyl valyl histidine is dissolved in ion exchange water to a constant volume of 10 ml. Alternatively, fructosyl glycine or ε-fructosyl lysine of 357 mg or 462 mg, respectively, may be dissolved in ion exchange water to a constant volume of 10 ml to be used as a substrate. Fructosyl valine histidine was prepared as described in Japanese Patent Application Laid-Open (kohyo) No. 2001-95598. Fructosyl glycine and ε-fructosyl lysine were prepared according to a method of Horiuchi et al. (Agric. Biol. Chem., 53, 103-110, 1989; Agric. Biol. Chem., 55, 333-338, 1991). 2.7 ml of Reagent 1, 100 μl of Reagent 2 and 100 μl of enzyme solution are mixed and pre-heated at 30° C. for 5 minutes. Then, 100 μl of Reagent 3 is added and thoroughly mixed to determine absorbance at 510 nm using a spectrophotometer (U-[…], Hitachi, Ltd.). Measurement values indicate changes in the absorbance per minute at 510 nm after 1 to 3 minutes. A control solution was prepared in the same manner as described above except 100 μl ion exchange water was added instead of 100 μl Reagent 3. A standard solution of hydrogen peroxide and ion exchange water were used instead of Reagent 3 and the enzyme solution, respectively, to prepare a graph showing relationship with respect to the level of color. Referring to this graph, micromole of hydrogen peroxide produced per minute at 30° C. is calculated and used as the unit for expressing the activity of the enzyme solution. The presence of action on ε-fructosyl lysine can be determined in the same manner by using Reagent 3 (substrate solution) containing ε-fructosyl lysine substrate instead of fructosyl valyl histidine substrate.

[4] = reference substrate set to 100%

| Molecule | pH of maximum activity (most preferable pH) [1] | optimum pH (range) [1] | pH of maximum remaining activity [2] | stable pH range [2] | Substrate specificity (% relative activity) εFL [3, 4] | relative activity for ε-fructosyl lysine [3] | Substrate specificity (% relative activity) εFL ([3]; relative to activity for fructosyl valyl histidine (100%)) |
| --- | --- | --- | --- | --- | --- | --- | --- |
| B1 | 7.0 pH | 6.0-8.0 pH | ~7.0 pH | 5.0-9.0 pH | 100% | 61% |  |
| B2 | 7.0 pH | 6.0-8.0 pH | 8.0 pH | 6.0-9.0 pH | 100% | 9.78% | 9.78% |
